Substrate: O=C(O)C(=O)Cc1ccc(O)cc1
Experiment: purified protein, by the assay type
Settings: other: substrate HPP varied between 10 and 400 µM; SEQ ID No. 32; pH 7.8

B1: Arabidopsis thaliana HPPD "SEQ ID No. 32" (Arabidopsis thaliana) (protein)
chain: MGHQNAAVSENQNHDDGAASSPGFKLVGFSKFVRKNPKSDKFKVKRFHHIEFWCGDATNVARRFSWGLGMRFSAKSDLSTGNMVHASYLLTSGDLRFLFTAPYSPSLSAGEIKPTTTASIPSFDHGSCRSFFSSHGLGVRAVAIEVEDAESAFSISVANGAIPSSPPIVLNEAVTIAEVKLYGDVVLRYVSYKAEDTEKSEFLPGFERVEDASSFPLDYGIRRLDHAVGNVPELGPALTYVAGFTGFHQFAEFTADDVGTAESGLNSAVLASNDEMVLLPINEPVHGTKRKSQIQTYLEHNEGAGLQHLALMSEDIFRTLREMRKRSSIGGFDFMPSPPPTYYQNLKKRVGDVLSDDQIKECEELGILVDRDDQGTLLQIFTKPLGDRPTIFIEIIQRVGCMMKDEEGKAYQSGGCGGFGKGNFSELFKSIEEYEKTLEAKQLVG
- Km: 6.3 µM

Reference: EP2669372A1, “HPPD variants and methods of use” (Bayer CropScience AG, priority 2010, dated 2012)
